Experimental data from the DeepSol protein solubility set.

Assay: soluble on expression in E. coli; label from the status in PepcDB or PDB records

Soluble on expression in E. coli, not soluble:
MENSSDPRTQSAATASLSEMIATITKTFIIAHVDDSDEHLAQALVYNAGRLAWRMREQGVHTDYKTSLSDVVTDADRAAEEFVSGVLTTLRPEDGIVGEEGATRNSTSGRTWVIDPVDGTYNFVNGSDFWCSALALIEGEPEDPTSVIFGAVHRPAMGYTWFGGPEIPTTCDGQPVAKLENKSTELINFATYLNPPCLQQPEIVTRWLTIAQAFLSWRMMGSGSVELANVADGTIGAYVQHSVKDWDWLPGRALVEGAGGKCIKVESGGVTWSIASNPQATDEVAAMLSR, MEQFINPRVKDIQISGIRQFSNMIQNYDNLISLTIGQSDFPTPSLVKEAAKRAITENYTSYTHNAGLLELRKAACNFVKDNYDLHYSPETETIVTIGASEAIDVAFRTILEPGTEVILPAPIYPGYEPIIRLCGATPIFIDVRETGFRLTAEALENAITEKTRCVVLPYPSNPTGVTLSKKELQDIADVLKDKNIFVLSDEIYSELVYEQTHTSIAHFPEMREKTIVINGLSKSHSMTGWRIGLLFAPSYLAGHILKVHQYNVTCATSIAQYAAIEALTAAKDAPKMMRHQYKKRRDYVYNRLIQMGLTVEKPTGAFYLFPYVGHLTSSSFDFALDLVKEAGLAVVPGTAFSEYGEGYLRLSYAYSIETLKEGCDRLEAFLQQKAKS

Soluble on expression in E. coli, soluble:
MENMIVIMAGGRSSRMGAEKPILKVNGKPMILRVYEESTKVGETLVAISKNTPKTRELCIKEGIPLIETPGEGYVEDVRYLLKELGSFVSVSADLPFVKACDIAEVKKAFDGKTSLTGVLPLSKVPTDLRPVVYKGYVIVGLNGVGFEGEKFYELSNPLLALNVNTPEELKLANRIAKLIG, MENQLTKSVEERTFQYQDSLPSLPVPALEESLKKYLESVKPFANEDEYKKTEEIVQKFQEGAGKRLHQKLLERARGKRNWLEEWWLNVAYLDVRIPSQLNVNFVGPCPHFEHYWPAREGTQLERGSMMLWHNLNYWQLLRREKLPVHKSGNTPLDMNQFRMLFSTCKVPGITRDSIMNYFKTESEGHCPTHIAVLCRGRAFVFDVLHEGCLITPPELLRQLTYIHKKCSNEPVGPSIAALTSEERTRWAKAREYLISLDPENLTLLEKIQTSLFVYSIEDSSPHATPEEYSQVFEMLLGGDPSVRWGDKSYNLISFANGIFGCCCDHAPYDAMVMVNIAHYVDERVLETEGRWKGSEKVRDIPLPEELVFTVDEKILNDVSQAKAQHLKAASDLQIAASTFTSFGKKLTKEEALHPDTFIQLALQLAYYRLHGRPGCCYETAMTRYFYHGRTETVRSCTVEAVRWCQSMQDPSASLLERQQKMLEAFAKHNKMMKDCSHGKGFDRHLLGLLLIAKEEGLPVPELFEDPLFSRSGGGGNFVLSTSLVGYLRVQGVVVPMVHNGYGFFYHIRDDRFVVACSSWRSCPETDAEKLVQMIFHAFHDMIQLMNTAHL, MEPRVTQRKRPLDGCMGKITGITSDILKYDHKCFKLSLPAKFPEVCGSDEVFPDPDLLHVLPVAGSLQQSIDQCCLQLESLCRPGLLCAHPTLLFKLHSSMKNRPFFSLIYTYVKKTQQVRKRDRKPRGQVAAGPNPTSVMLEHHHHHH, MEQLTKCEVFRELKDLKGYGGVSLPEWVCTTFHTSGYDTQAIVQNNDSTEYGLFQINNKIWCKDDQNPHSSNICNISCDKFLDDDLTDDIVCVKKILDKVGINYWLAHKALCSEKLDQWLCEKL, MERAESSSTEPAKAIKPIDRKSVHQICSGQVVLSLSTAVKELVENSLDAGATNIDLKLKDYGVDLIEVSDNGCGVEEENFEGLTLKHHTSKIQEFADLTQVETFGFRGEALSSLCALSDVTISTCHASAKVGTRLMFDHNGKIIQKTPYPRPRGTTVSVQQLFSTLPVRHKEFQRNIKKEYAKMVQVLHAYCIISAGIRVSCTNQLGQGKRQPVVCTGGSPSIKENIGSVFGQKQLQSLIPFVQLPPSDSVCEEYGLSCSDALHNLFYISGFISQCTHGVGRSSTDRQFFFINRRPCDPAKVCRLVNEVYHMYNRHQYPFVVLNISVDSECVDINVTPDKRQILLQEEKLLLAVLKTSLIGMFDS, MEREQRHKVIMRTIDRPGITRIDALTELTGVSAVTIHRDLVELEQAGFLARTHGGAKRVPKRGTPQPFAVRQAEDREAKRILAQATAQLIADDEAVIFDNGTTCQAVAQELAGRPITALCLSLHSAVALGSRAGTNVFIPGGPVENDSLALSGPAVITALRDFSADVVILGSCSTSLEHGLATTTYDDAENKRAAIHAATRRILVVSARKLNHVSTFRFADVADLHQLVTTSDAPREILAEIRDLGVQVITVPAPDEQRSLEHHHHHH
